Laboratory results taken from US20190032056, “STEM-LOOP COMPOSITIONS AND METHODS FOR INHIBITING FACTOR D” (Vitrisa Therapeutics, Inc., published 2019).

Target: T1, complement Factor D (fD) (Homo sapiens, UniProt P00746 SEQ:1-228)
Assay: SPR
Settings: tags: amine-coupled to dextran chip for SPR; free in esterase assay; hairpin
Protocol: The binding affinity of aptamers for fD was determined by surface plasmon resonance (SPR) on a Reichert4 SPR System, where either aptamer or fD was immobilized as ligand on a solid surface and the interactant analyte was flowed in solution over the immobilized ligand (Table 20).

T1 sequence (P00746 26-253): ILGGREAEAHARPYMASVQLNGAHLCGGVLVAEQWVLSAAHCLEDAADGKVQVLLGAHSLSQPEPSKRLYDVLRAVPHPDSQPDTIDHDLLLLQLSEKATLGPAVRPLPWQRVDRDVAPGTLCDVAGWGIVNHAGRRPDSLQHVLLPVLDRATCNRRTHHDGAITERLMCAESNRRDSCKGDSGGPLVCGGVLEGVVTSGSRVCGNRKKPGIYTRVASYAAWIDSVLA

Binder	Kd
GCCUUGCGGGUAUUGGCGAUGGCCCGAAGUUUGGC (ssRNA, 2'-F G except 2'-OMe G in stem 1; 2'-OMe A,C,U; 5' C6NH2; 3' idT) [Aptamer 108]	2.7 nM
CGCCUUGCCAGUAUUGGCUUAGGCUGGAAGUUUGGCG (ssRNA, 2'-F G except 2'-OMe G in stem 1; 2'-OMe A,C,U; 5' C6NH2; 3' idT) [Aptamer 104]	3.9 nM
CGCCUUGCCAGUAUUGGCGAUGGCUGGAAGUUUGGCG (ssRNA, 2'-F G except 2'-OMe G in stem 1; 2'-OMe A,C,U; 5' C6NH2; 3' idT) [Aptamer 99]	3.34 nM
CGACUUGCCAGUAUUGGCUUAGGCUGGAAGUUUGUCG (ssRNA, 2'-F G except 2'-OMe G in stem 1; 2'-OMe A,C,U; 5' C6NH2; 3' idT) [Aptamer 107]	4.2 nM
GGCCUUGCCCGUAUUGGCGAUGGCGGGAAGUUUGGCC (ssRNA, 2'-F G except 2'-OMe G in stem 1; 2'-OMe A,C,U; 5' C6NH2; 3' idT) [Aptamer 109]	1.07 nM

Target: T2, complement Factor D (fD) in C1q-depleted human serum (Homo sapiens, UniProt P00746 SEQ:1-228)
T2 sequence (P00746 26-253): as the sequence (P00746 26-253) above
Assay: inhibition; hemolysis
Settings: protein: extract; tags: endogenous fD, about 9.6 nM in 10% serum; hairpin
Protocol: (§1) In V-bottom 96-well plates the following reagents were added to a final volume of 250 μL: appropriate volume of 1× Veronal buffer with 0.1% gelatin, 100 μL aptamer, 30 μL of C1q-depleted human serum and 20 μl RBCs. This mixture was incubated for 25 minutes at room temperature, then the reaction was stopped by the addition of 5 μL of 500 mM EDTA. The plate was centrifuged for 5 minutes at 500×g at room temperature, then 100 μL of supernatant was removed and the extent of RBC lysis was determined by measuring absorbance at 405 nm.
The following nine aptamers with 2′OMe-Gs in Stem 1 (S1) were synthesized: Aptamer 76 (2′OMe-Gs substituted in Stem 1 (S1) of Aptamer 39), Aptamer 116 (Aptamer comprising loop 2 (L2) of Aptamer 39 and Stem 1 (51) of Aptamer 15 with 2′OMe-Gs in Stem 1 (S1)), Aptamer 102 (4 base pair 2′OMe-G Stem 1 (S1) variant of Aptamer 76), Aptamer 104 (4 base pair 2′OMe-G Stem 1 (S1) variant of Aptamer 74), Aptamer 106 (Aptamer 88 with 2′OMe-G Stem 1 (S1)), Aptamer 107 (4 base pair 2′OMe-G Stem 1 (S1) variant of Aptamer 88), Aptamer 108 (3 base pair 2′OMe-G Stem 1 (S1) variant of Aptamer 92), Aptamer 109 (4 base pair 2′OMe-G Stem 1 (S1) variant of Aptamer 98) and, Aptamer 99 (4 base pair 2′OMe-G Stem 1 (S1) variant of Aptamer 60).

Binder	IC50
GCCUUGCGGGUAUUGGCGAUGGCCCGAAGUUUGGC (ssRNA, 2'-F G except 2'-OMe G in stem 1; 2'-OMe A,C,U; 5' C6NH2; 3' idT) [Aptamer 108]	< 10 nM
CCGCCUUGCCAGUAUUGGCGAUGGCUGGAAGUUUGGCGG (ssRNA, 2'-F G except 2'-OMe G in stem 1; 2'-OMe A,C,U; 5' C6NH2; 3' idT) [Aptamer 116]	< 10 nM
CGCCUUGCCAGUAUUGGCUUAGGCUGGAAGUUUGGCG (ssRNA, 2'-F G except 2'-OMe G in stem 1; 2'-OMe A,C,U; 5' C6NH2; 3' idT) [Aptamer 104]	< 10 nM
CGCCUUGCCAGUAUUGGCGAUGGCUGGAAGUUUGGCG (ssRNA, 2'-F G except 2'-OMe G in stem 1; 2'-OMe A,C,U; 5' C6NH2; 3' idT) [Aptamer 99]	< 10 nM
CGACUUGCCAGUAUUGGCUUAGGCUGGAAGUUUGUCG (ssRNA, 2'-F G except 2'-OMe G in stem 1; 2'-OMe A,C,U; 5' C6NH2; 3' idT) [Aptamer 107]	< 10 nM
GGCCUUGCCCGUAUUGGCGAUGGCGGGAAGUUUGGCC (ssRNA, 2'-F G except 2'-OMe G in stem 1; 2'-OMe A,C,U; 5' C6NH2; 3' idT) [Aptamer 109]	< 10 nM

Target: T2, complement Factor D (fD) in …
Assay: inhibition; hemolysis, sd 0.8
Settings: protein: extract; tags: endogenous fD, about 9.6 nM in 10% serum; hairpin
Protocol: as §1
The potency of the PEG-aptamers P01, P04, P06, P07 and P08 compared to their non-pegylated counterparts was determined in the alternative complement-dependent hemolysis assay as described in Example 2.

Binder	IC50
CCGCCUUGCCAGUAUUGGCUUAGGCUGGAAGUUUGGCGG (ssRNA, as Aptamer 74 (2'-OMe G at 3,35,36,38,39; other G 2'-F; 2'-OMe A,C,U); 5' 40 kDa branched PEG via C6NH2; 3' idT) [P04 (PEGylated Aptamer 74)]	3.2 nM

Target: T1, complement Factor D (fD)
Assay: competition; signal reduced about 75-90% by 100 nM AFD anti-fD Fab; SB1T, 37 C
Settings: tags: His-tagged, immobilized on magnetic His capture beads; label: Dy650 via hybridized 2'-OMe reverse oligo
Protocol: Competition binding assays were performed using a clone of an anti-fD Fab with an amino acid sequence of heavy chain variable region according to SEQ ID NO:7 and light chain variable region according to SEQ ID NO:8 (hereinafter, “AFD”) to further assess binding. For the competition assays, beads labelled with fD were first incubated with 50 nM round or individual aptamer, in 50 μl SB1T (with ssDNA and BSA), for 30 minutes at 37° C. The beads were then washed with SB1T to remove unbound aptamers and incubated with or without 100 nM AFD for 30 minutes at 37° C. Following incubation, the beads were washed three times with SB1T, and assayed by flow cytometry (FIG. 12). […] In cases where aptamers are sufficiently outcompeted by AFD as described above, such aptamers were presumed to be binding to the exosite or the self-inhibitory loop of fD.

Binder	binding result
C2 (ssRNA, 2'-F G; 2'-OMe A, C, U) RNA: GGGAGUGUGUACGAGGCAUUAGUCCGCCGAAGUCUUUUGGCUCGGUUUUUUCAAGGUCGGCGGCUUUGAUACUUGAUCGCCCUAGAAGC	binds
C1 (ssRNA, 2'-F G; 2'-OMe A, C, U) RNA: GGGAGUGUGUACGAGGCAUUAGGCCGCCACCCAAACUGCAGUCCUCGUAAGUCUGCCUGGCGGCUUUGAUACUUGAUCGCCCUAGAAGC	binds
C3 (ssRNA, 2'-F G; 2'-OMe A, C, U) RNA: GGGAGUGUGUACGAGGCAUUAGGCCGCCACCUCGUUUGAUUGCGGUUGUUCGGCCGCGGGCGGCUUUGAUACUUGAUCGCCCUAGAAGC	binds

Target: T2, complement Factor D (fD) in …
Assay: inhibition; hemolysis
Settings: protein: extract; tags: endogenous fD, about 9.6 nM in 10% serum; hairpin
Remark: another data set of the same source
Protocol: as §1
To this end, series of aptamer variants were designed based on the loop L2 sequences for Aptamers 15, 39, and 38 in which the sequence of S1 and S2 were altered while maintaining pairing (Table 17). These included Aptamers 90, and 94-98. Additionally, a truncate of Aptamer 38 (Aptamer 91) was designed with 3 base pairs in stem S1. The stem elements (S1 and S2) from this molecule were also used to generate Aptamer 92, which contained L2 from Aptamer 39.

Binder	IC50
GCCUUGAGGGUAUUGGCGAUGGCCCUAAGUUUGGC (ssRNA, 2'-F G; 2'-OMe A,C,U; 5' C6NH2; 3' idT) [Aptamer 93]	~100 nM
GCCUUGCGGGUAUUGGCGAUGGCCCGAAGUUUGGC (ssRNA, 2'-F G; 2'-OMe A,C,U; 5' C6NH2; 3' idT) [Aptamer 92]	~10 nM
CGCCUUGCCAGUAUUGGCUUAGGCUGGAAGUUUGGCG (ssRNA, 2'-F G; 2'-OMe A,C,U; 5' C6NH2; 3' idT) [Aptamer 16]	< 10 nM
GGCCUUGCCCGUAUUGGCGAUGGCGGGAAGUUUGGCC (ssRNA, 2'-F G; 2'-OMe A,C,U; 5' C6NH2; 3' idT) [Aptamer 98]	< 10 nM

Target: T2, complement Factor D (fD) in …
Assay: inhibition; hemolysis
Settings: protein: extract; tags: endogenous fD, about 9.6 nM in 10% serum; hairpin
Remark: another data set of the same source

Binder	IC50
CGCAUUGCUAGUAUUGGCUUAGGCUAGAAGUGUUGCG (ssRNA, 2'-F G; 2'-OMe A,C,U; 5' C6NH2; 3' idT) [Aptamer 40]	5.8 nM
CCGACUUGCCAGUAUUGGCGAUGGCUGGAAGUUUGUCGG (ssRNA, 2'-F G; 2'-OMe A,C,U; 5' C6NH2; 3' idT) [Aptamer 39]	3.1 nM
CCGACUUGCGGGUAUUGGCGAUGGCCCGAAGUUUGUCGG (ssRNA, 2'-F G; 2'-OMe A,C,U; 5' C6NH2; 3' idT) [Aptamer 54]	~10 nM
CCGACUUGCCAGUAUUGGCGCUGGCUGGAAGUUUGUCGG (ssRNA, 2'-F G; 2'-OMe A,C,U; 5' C6NH2; 3' idT) [Aptamer 68]	~10 nM
CUGCCUUGCGGGUAUUGGCGUUGGCCCGAAGUUUGGCUG (ssRNA, 2'-F G; 2'-OMe A,C,U; 5' C6NH2; 3' idT) [Aptamer 38]	5.5 nM
CUGCCUUGCGGGUAUUGGCGAUGGCCCGAAGUUUGGCUG (ssRNA, 2'-F G; 2'-OMe A,C,U; 5' C6NH2; 3' idT) [Aptamer 57]	~10 nM
CCGACUUGCGGGUAUUGGCGUUGGCCCGAAGUUUGUCGG (ssRNA, 2'-F G; 2'-OMe A,C,U; 5' C6NH2; 3' idT) [Aptamer 59]	< 10 nM
CGACUUGCGGGUAUUGGCGAUGGCCCGAAGUUUGUCG (ssRNA, 2'-F G; 2'-OMe A,C,U; 5' C6NH2; 3' idT) [Aptamer 55]	~10 nM
CCGACUUGCCAGUAUUGGCCUAGGCUGGAAGUUUGUCGG (ssRNA, 2'-F G; 2'-OMe A,C,U; 5' C6NH2; 3' idT) [Aptamer 66]	~100 nM
CCGACUUGCCAGUGUUGGCUUUGGCUGGAAGUUUGUCGG (ssRNA, 2'-F G; 2'-OMe A,C,U; 5' C6NH2; 3' idT) [Aptamer 36]	8.2 nM
CCGACUUGCCAGUAUUGGCGCAGGCUGGAAGUUUGUCGG (ssRNA, 2'-F G; 2'-OMe A,C,U; 5' C6NH2; 3' idT) [Aptamer 69]	< 10 nM
CCGACUUGCCAGUAUUGGCUUAGGCUGGAAGUUUGUCGG (ssRNA, 2'-F G; 2'-OMe A,C,U; 5' C6NH2; 3' idT) [Aptamer 88]	< 10 nM
CCGACUUGCCAGUAUUAGCUUAGGCUGGAAGUUUGUCGG (ssRNA, 2'-F G; 2'-OMe A,C,U; 5' C6NH2; 3' idT) [Aptamer 64]	~100 nM
CCGACUUGCCAGUAUUGGCGAAGGCUGGAAGUUUGUCGG (ssRNA, 2'-F G; 2'-OMe A,C,U; 5' C6NH2; 3' idT) [Aptamer 71]	< 10 nM
CCGACUUGCCAGUAUAGGCUCAGGCUGGAAGUUUGUCGG (ssRNA, 2'-F G; 2'-OMe A,C,U; 5' C6NH2; 3' idT) [Aptamer 62]	~10 nM
CCGACUUGCCAGUAUUGGCUCUGGCUGGAAGUUUGUCGG (ssRNA, 2'-F G; 2'-OMe A,C,U; 5' C6NH2; 3' idT) [Aptamer 72]	~100 nM
CCGCCUUGCGAGUAAUGGCGUAGGCUCGAAGUUGGGCGG (ssRNA, 2'-F G; 2'-OMe A,C,U; 5' C6NH2; 3' idT) [Aptamer 35]	5.4 nM
CAGCCAUGCAAGUAUUGGCUUAGGCUUGAAGUUCGGCUG (ssRNA, 2'-F G; 2'-OMe A,C,U; 5' C6NH2; 3' idT) [Aptamer 33]	11 nM
CAGCCGUGCUAGUAUUGGCAUUGGCUAGAAGUUAGGCUG (ssRNA, 2'-F G; 2'-OMe A,C,U; 5' C6NH2; 3' idT) [Aptamer 34]	6.9 nM
CGCCUUGCCAGUAUUGGCGAUGGCUGGAAGUUUGGCG (ssRNA, 2'-F G; 2'-OMe A,C,U; 5' C6NH2; 3' idT) [Aptamer 60]	< 10 nM

Target: T1, complement Factor D (fD)
Assay: flow; bead-based direct binding
Settings: tags: His-tagged recombinant, bead-immobilized via His capture beads (flow) or anti-His Eu (TR-FRET); hairpin

Binder	Kd
CCGCCUUGCCAGUAUUGGCUUAGGCUGGAAGUUUGGCGG (ssRNA, 2'-F G except 2'-OMe G at 3,12,24,27,28,35,36,38,39; 2'-OMe A,C,U; 5' C6SH; 3' idT) [Aptamer 1723]	45 nM
CCGCCUUGCCAGUAUUGGCUUAGGCUGGAAGUUUGGCGG (ssRNA, 2'-F G except 2'-OMe G at 3,12,27,35,36,38,39; 2'-OMe A,C,U; 5' C6SH; 3' idT) [Aptamer 1721]	4.5 nM
CCGCCUUGCCAGUAUUGGCUUAGGCUGGAAGUUUGGCGG (ssRNA, 2'-F G except 2'-OMe G at 3,12,27,28,35,36,38,39; 2'-OMe A,C,U; 5' C6SH; 3' idT) [Aptamer 1722]	11 nM
